From PMC3739435 (Peptides, 2013) come the findings set out here.

Assay [1] deals with T1, hemagglutinin-tagged wild type human type 2 CCK receptor (human, UniProt P32239 1-447).
T1 sequence (looked up): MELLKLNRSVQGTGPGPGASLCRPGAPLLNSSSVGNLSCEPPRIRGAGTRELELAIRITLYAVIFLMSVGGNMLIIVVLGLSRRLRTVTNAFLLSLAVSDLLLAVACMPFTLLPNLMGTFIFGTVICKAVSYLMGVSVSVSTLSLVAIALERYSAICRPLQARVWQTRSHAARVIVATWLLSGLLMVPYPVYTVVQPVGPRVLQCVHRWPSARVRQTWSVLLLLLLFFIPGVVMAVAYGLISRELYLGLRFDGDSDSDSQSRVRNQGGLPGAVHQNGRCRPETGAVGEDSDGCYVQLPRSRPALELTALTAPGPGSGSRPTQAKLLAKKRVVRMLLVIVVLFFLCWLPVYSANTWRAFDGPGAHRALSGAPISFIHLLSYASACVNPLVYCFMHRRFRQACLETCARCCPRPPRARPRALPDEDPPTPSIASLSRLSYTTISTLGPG
The experiment in a line: cell-based or functional assay.

The target of assay [2] is T1, hemagglutinin-tagged wild type human …. Briefly: radioligand binding.

Square brackets hold non-standard residues; d marks the D form. Ends that are not written are not given here. * marks the point of attachment. Benzoyl(4-benzoyl) = O=C(c1ccccc1)c1ccc(C(=O)*)cc1; Bpa = N[C@@H](Cc1ccc(C(=O)c2ccccc2)cc1)C(=O)O; Phe(NO2) = nitro-phenylalanine (NO2-Phe); Desaminotyrosyl = O=C(CCc1ccc(O)cc1)*; Nle = CCCC[C@H](N)C(=O)O

B1: (des-amino-Tyr)-Gly-[(NO2-Phe26,Nle28,Nle31)CCK-26-33] (peptide)
chain: [Desaminotyrosyl]G[Phe(NO2)]Y[Nle]GW[Nle]DF
modifications: ends and bridges not checked
On to B1, for which the “intracellular calcium responses in CHO-CCK2R cells, EC50” value in assay [1] was greater than 1000 nM.

B2: (des-amino-Tyr)-Gly-[(Nle28,(BzBz)Lys31)CCK-26-33] (peptide)
chain: [Desaminotyrosyl]GDY[Nle]GWK(Benzoyl(4-benzoyl))DF
modifications: ends and bridges not checked
For orientation: IC50 means the concentration at which inhibition is half-maximal. The low end stands for inhibition by little substance, the high end for a need for much substance. B2 displayed an IC50 in assay [2] greater than 1000 nM.

B3: (des-amino-Tyr)-Gly-[(Nle28,Nle31,Bpa32)CCK-26-33] (peptide)
chain: [Desaminotyrosyl]GDY[Nle]GW[Nle][Bpa]F
modifications: ends and bridges not checked
In assay [2], B3 came in with a half-maximal inhibitory concentration (IC50) greater than 1000 nM. Moreover, in assay [1], the “intracellular calcium responses in CHO-CCK2R cells, EC50” value was greater than 1000 nM.

B4: (des-amino-Tyr)-Gly-[(Nle28,Bpa30,Nle31)CCK-26-33] (peptide)
chain: [Desaminotyrosyl]GDY[Nle]G[Bpa][Nle]DF
modifications: ends and bridges not checked
For B4, the IC50 in assay [2] was greater than 1000 nM.
